Data on eight molecules can be found in JP2006342173A (dated 2006).

B1: KM643-4-11抗体 (antibody, V domains shown)
VH: QVQLQQSGPGLVKPSQTLSFTCAISGDSVSSNSAAWNWIRQSPSRGLEWLGRTYYRSKWYKDYAVSVKSRITINPDTSKNQFSLQLNSVTPEDTAVYYCARGYYYGSGSYPYYYQMDVWGQGTTVTVSS
VL: EIVLTQSPATLSLSPGESATLSCRASQSVSSYLAWYQQKPGQAPRLLIYDASNRATGIPARFSGSGSGTDFTLTISSLEPEDFAVYYCQQRSNTFGGGTKVEIK
notes: Human agonistic anti-CD40 antibody from hybridoma; Signal peptides predicted by Signal P
B2: 110抗体 (antibody, V domains shown)
VH: QVQLVESGGGVVQPGRSLRLSCAASGFTFSSYGMHWVRQAPGKGLEWVAVIWYDGSIKYYADSVKGRFTISRDNSKNTLYLQMNSLRAEDTAVYYCAREGYNILTGYFGYWGQGTLVTVSS
VL: VIWMTQSPSLLSASTGDRVTISCRMSQGISSDLAWYQQKPGKAPELLISAASTLQSGVPSRFSGSGSGTDFTLTISCLQSEDFATYYCQQYYSFPWTFGQGTKVEIK
notes: as for B1
B3: 115抗体 (antibody, V domains shown)
VH: QVQLVESGGGVVQPGRSLRLSCAASGFTFSSYGMHWVRQAPGKGLEWVAVIWNDGSIKYYADSVKGRFTISRDNSKNTLYLQMNSLRAEDTAVYYCAREGYNILTGYFGYWGQGTLVTVSS
VL: VIWMTQSPSLLSASTGDRVTISCRMSQGISSDLAWYQQKPGKAPELLISAASTLQSGVPSRFSGSGSGTDFTLTISCLQSEDFATYYCQQYYSFPWTFGQGTKVEIK
notes: as for B1
B4: 2105抗体 (antibody, V domains shown)
VH: EVQLVESGGGLVQPGRSLRLSCAASGFTFDDYAMHWVRQAPGKGLEWVSGISWNSGSLVHADSVKGRFTISRDNAKNSLYLQMNSLRAEDTALYYCARDRLFRGVRYYGMDVWGQGTTVTVSS
VL: EIVLTQSPATLSLSPGERATLSCRASQSVSSYLAWYQQKPGQAPRLLIYDASNRATGIPARFSGSGSGTDFTLTISSLEPEDFAVYYCQQRSHWLTFGGGTKVEIK
notes: Human agonistic anti-CD40 antibody, FERM BP-8024
B5: 4D11抗体 (antibody, V domains shown)
VH: QLQLQESGPGLLKPSETLSLTCTVSGGSISSPGYYGGWIRQPPGKGLEWIGSIYKSGSTYHNPSLKSRVTISVDTSKNQFSLKLSSVTAADTAVYYCTRPVVRYFGWFDPWGQGTLVTVSS
VL: AIQLTQSPSSLSASVGDRVTITCRASQGISSALAWYQQKPGKAPKLLIYDASNLESGVPSRFSGSGSGTDFTLTISSLQPEDFATYYCQQFNSYPTFGQGTKVEIK
notes: Human antagonistic anti-CD40 antibody, FERM BP-7758; Signal peptides predicted by Signal P
B6: F5-77抗体 (antibody, V domains shown)
VH: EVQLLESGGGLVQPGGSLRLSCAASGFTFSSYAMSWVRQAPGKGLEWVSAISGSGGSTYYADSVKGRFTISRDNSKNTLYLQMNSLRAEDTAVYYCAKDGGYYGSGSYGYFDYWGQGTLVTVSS
VL: DIQMTQSPSSVSGSVGDRVTITCRASQGISSWLAWYQQKPGKAPKLLIYAGSSLQSGVPSRFSGSGFGTDFTLTISSLQPEDFATYYCQQASSFPRTFGQGTKVEIK
notes: Human agonistic anti-CD40 antibody from hybridoma; plasmids ATCC PTA-3304 and PTA-3305; Signal peptides predicted by Signal P
B7: F2-103抗体 (antibody, V domains shown)
VH: EVQLVESGGGLVQPGGSLRLSCAVSGFTFSTYWMHWVRQAPGKGLVWVSRINSDGSSTTYADSVKGRFTISRDNAKNTLYLQMNSLRAEDTAVYYCARDRVLWIGELSYYGMDVWGQGTTVTVSS
VL: DIQMTQSPSTLSASVGDRVTITCRASQSISNWLAWYQQKPGKAPKLLLYKASGLESGVPSRFSGSGSGTEFTLTINSLQPDDFATYYCQQSNSYSWTFGHGTKVEIK
notes: Human agonistic anti-CD40 antibody from hybridoma; plasmids ATCC PTA-3302 and PTA-3303; Signal peptides predicted by Signal P
B8: KM281-1-10抗体 (antibody, V domains shown)
VH: QVQLQESGPGLVKPSETLSLTCTVSGGSISGYYWSWIRQPPGKGLEWIGYIYYSGSTNYNPSLKSRVTISVDTSKNQFSLKLNSVTAADTAVYYCARAPLHGDYKWFHPWGQGTLVTVSS
VL: not shown
notes: Human antagonistic anti-CD40 antibody, FERM BP-7579; Signal peptides predicted by Signal P

T1 sequence (P25942 21-277): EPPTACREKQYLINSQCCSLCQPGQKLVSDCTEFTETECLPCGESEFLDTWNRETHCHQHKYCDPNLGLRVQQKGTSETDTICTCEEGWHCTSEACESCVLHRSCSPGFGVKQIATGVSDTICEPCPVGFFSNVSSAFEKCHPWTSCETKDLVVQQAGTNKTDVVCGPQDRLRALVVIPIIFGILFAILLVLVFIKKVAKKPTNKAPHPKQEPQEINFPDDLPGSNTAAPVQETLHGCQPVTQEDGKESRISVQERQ

The assay concerns the target T1, ヒトCD40 (human CD40 expressed on cells) (human, UniProt P25942 21-277).
T1 construct: whole, on cells; also called Ramos細胞上のCD40; DC上のCD40
Kind of assay: screening by ELISA (human CD40 mouse FC) and FACS (Ramos cells). Background: ELISA stands for enzyme-linked immunosorbent assay.
On to B1, for which the binding result is given as “binds”.
Then B2, with “binds”.
The result for B3 reads “binds”; that for B4, “binds”; that for B5, “binds”.
For the molecule B6, the binding result is recorded as “binds”.
On to B7, for which the binding result was “binds”.
The result for B8 reads “binds”.
